Abundance fitness data for 48 variants are collected here from the Human Domainome abundance scans (Beltran et al. 2025).

First the molecules themselves.
B1: SH3 and PX domain-containing protein 2B, residues 155 to 209; numbered along this chain, A1X283 (parent)
chain: EQYVVVANYQKQESSEISLSVGQVVDIIEKNESGWWFVSTAEEQGWVPATCLEGQ

± gives the uncertainty stated by the source.

The variants in the data set derive from B1. Put plainly: abundance fitness (aPCA) (normalised: wild type 0, dead -1); higher = more abundant; growth selection in yeast, the domain comes from the species named. As to conditions: Homo sapiens.
For EQYVDVANYQKQESSEISLSVGQVVDIIEKNESGWWFVSTAEEQGWVPATCLEGQ [V5D], the abundance fitness was -0.999 ± 0.2.
In the case of EQYVEVANYQKQESSEISLSVGQVVDIIEKNESGWWFVSTAEEQGWVPATCLEGQ [V5E] it was -0.939 ± 0.23; in that of EQYVFVANYQKQESSEISLSVGQVVDIIEKNESGWWFVSTAEEQGWVPATCLEGQ [V5F], -0.875 ± 0.2; in that of EQYVCVANYQKQESSEISLSVGQVVDIIEKNESGWWFVSTAEEQGWVPATCLEGQ [V5C], -0.108 ± 0.12.
In the case of EQSVVVANYQKQESSEISLSVGQVVDIIEKNESGWWFVSTAEEQGWVPATCLEGQ [Y3S] it was 0.039 ± 0.093; in that of EQFVVVANYQKQESSEISLSVGQVVDIIEKNESGWWFVSTAEEQGWVPATCLEGQ [Y3F], -0.053 ± 0.13; in that of EQCVVVANYQKQESSEISLSVGQVVDIIEKNESGWWFVSTAEEQGWVPATCLEGQ [Y3C], -0.349 ± 0.14.
Next, EQTVVVANYQKQESSEISLSVGQVVDIIEKNESGWWFVSTAEEQGWVPATCLEGQ [Y3T]: -0.06 ± 0.11; EQLVVVANYQKQESSEISLSVGQVVDIIEKNESGWWFVSTAEEQGWVPATCLEGQ [Y3L]: -0.237 ± 0.077.
As for EQNVVVANYQKQESSEISLSVGQVVDIIEKNESGWWFVSTAEEQGWVPATCLEGQ [Y3N], the abundance fitness was -0.268 ± 0.13.
In the case of EQHVVVANYQKQESSEISLSVGQVVDIIEKNESGWWFVSTAEEQGWVPATCLEGQ [Y3H] it was -0.537 ± 0.17; in that of EQPVVVANYQKQESSEISLSVGQVVDIIEKNESGWWFVSTAEEQGWVPATCLEGQ [Y3P], -0.585 ± 0.18.
In the case of EQDVVVANYQKQESSEISLSVGQVVDIIEKNESGWWFVSTAEEQGWVPATCLEGQ [Y3D] it was -0.162 ± 0.2; in that of EQGVVVANYQKQESSEISLSVGQVVDIIEKNESGWWFVSTAEEQGWVPATCLEGQ [Y3G], 0.003 ± 0.074.
Next, EQVVVVANYQKQESSEISLSVGQVVDIIEKNESGWWFVSTAEEQGWVPATCLEGQ [Y3V]: -0.073 ± 0.081.
As for EQRVVVANYQKQESSEISLSVGQVVDIIEKNESGWWFVSTAEEQGWVPATCLEGQ [Y3R], the abundance fitness is -0.127 ± 0.067.
In the case of EQWVVVANYQKQESSEISLSVGQVVDIIEKNESGWWFVSTAEEQGWVPATCLEGQ [Y3W] it was -0.324 ± 0.12; in that of EQAVVVANYQKQESSEISLSVGQVVDIIEKNESGWWFVSTAEEQGWVPATCLEGQ [Y3A], 0.106 ± 0.095; in that of EQEVVVANYQKQESSEISLSVGQVVDIIEKNESGWWFVSTAEEQGWVPATCLEGQ [Y3E], -0.114 ± 0.15.
In the case of EQIVVVANYQKQESSEISLSVGQVVDIIEKNESGWWFVSTAEEQGWVPATCLEGQ [Y3I] it was -0.175 ± 0.13; in that of EQQVVVANYQKQESSEISLSVGQVVDIIEKNESGWWFVSTAEEQGWVPATCLEGQ [Y3Q], -0.17 ± 0.13; in that of EQKVVVANYQKQESSEISLSVGQVVDIIEKNESGWWFVSTAEEQGWVPATCLEGQ [Y3K], -0.035 ± 0.15.
Next, ELYVVVANYQKQESSEISLSVGQVVDIIEKNESGWWFVSTAEEQGWVPATCLEGQ [Q2L]: -0.189 ± 0.087; ETYVVVANYQKQESSEISLSVGQVVDIIEKNESGWWFVSTAEEQGWVPATCLEGQ [Q2T]: -0.148 ± 0.12; ESYVVVANYQKQESSEISLSVGQVVDIIEKNESGWWFVSTAEEQGWVPATCLEGQ [Q2S]: -0.058 ± 0.11.
As to ERYVVVANYQKQESSEISLSVGQVVDIIEKNESGWWFVSTAEEQGWVPATCLEGQ [Q2R], the abundance fitness is -0.167 ± 0.12.
In the case of EVYVVVANYQKQESSEISLSVGQVVDIIEKNESGWWFVSTAEEQGWVPATCLEGQ [Q2V] it was 0.012 ± 0.11; in that of EWYVVVANYQKQESSEISLSVGQVVDIIEKNESGWWFVSTAEEQGWVPATCLEGQ [Q2W], -0.415 ± 0.1; in that of ENYVVVANYQKQESSEISLSVGQVVDIIEKNESGWWFVSTAEEQGWVPATCLEGQ [Q2N], 0.13 ± 0.25.
In the case of EYYVVVANYQKQESSEISLSVGQVVDIIEKNESGWWFVSTAEEQGWVPATCLEGQ [Q2Y] it was -0.29 ± 0.39; in that of EPYVVVANYQKQESSEISLSVGQVVDIIEKNESGWWFVSTAEEQGWVPATCLEGQ [Q2P], -0.068 ± 0.12.
In the case of EQYQVVANYQKQESSEISLSVGQVVDIIEKNESGWWFVSTAEEQGWVPATCLEGQ [V4Q] it was -0.018 ± 0.15; in that of EQYDVVANYQKQESSEISLSVGQVVDIIEKNESGWWFVSTAEEQGWVPATCLEGQ [V4D], -0.148 ± 0.1.
As to EQYFVVANYQKQESSEISLSVGQVVDIIEKNESGWWFVSTAEEQGWVPATCLEGQ [V4F], the abundance fitness is -0.061 ± 0.1.
Next, EQYSVVANYQKQESSEISLSVGQVVDIIEKNESGWWFVSTAEEQGWVPATCLEGQ [V4S]: 0.083 ± 0.088; EQYCVVANYQKQESSEISLSVGQVVDIIEKNESGWWFVSTAEEQGWVPATCLEGQ [V4C]: -0.01 ± 0.13; EQYEVVANYQKQESSEISLSVGQVVDIIEKNESGWWFVSTAEEQGWVPATCLEGQ [V4E]: 0.003 ± 0.099.
On to EQYGVVANYQKQESSEISLSVGQVVDIIEKNESGWWFVSTAEEQGWVPATCLEGQ [V4G], for which the abundance fitness is -0.265 ± 0.076.
In the case of EQYWVVANYQKQESSEISLSVGQVVDIIEKNESGWWFVSTAEEQGWVPATCLEGQ [V4W] it was -0.271 ± 0.12.
In the case of EQYHVVANYQKQESSEISLSVGQVVDIIEKNESGWWFVSTAEEQGWVPATCLEGQ [V4H] it was -0.308 ± 0.15; in that of EQYNVVANYQKQESSEISLSVGQVVDIIEKNESGWWFVSTAEEQGWVPATCLEGQ [V4N], -0.139 ± 0.14; in that of EQYYVVANYQKQESSEISLSVGQVVDIIEKNESGWWFVSTAEEQGWVPATCLEGQ [V4Y], 0.046 ± 0.21.
Next, EQYIVVANYQKQESSEISLSVGQVVDIIEKNESGWWFVSTAEEQGWVPATCLEGQ [V4I]: 0.082 ± 0.13; EQYRVVANYQKQESSEISLSVGQVVDIIEKNESGWWFVSTAEEQGWVPATCLEGQ [V4R]: 0.077 ± 0.096; EQYMVVANYQKQESSEISLSVGQVVDIIEKNESGWWFVSTAEEQGWVPATCLEGQ [V4M]: -0.463 ± 0.26.
As for EQYLVVANYQKQESSEISLSVGQVVDIIEKNESGWWFVSTAEEQGWVPATCLEGQ [V4L], the abundance fitness amounted to 0.075 ± 0.065.
Next, EQYTVVANYQKQESSEISLSVGQVVDIIEKNESGWWFVSTAEEQGWVPATCLEGQ [V4T]: 0.193 ± 0.18; EQYAVVANYQKQESSEISLSVGQVVDIIEKNESGWWFVSTAEEQGWVPATCLEGQ [V4A]: -0.047 ± 0.082.
